Measurements taken from patent US20070042954A1.
Read-outs that look alike come from different tables or passages of the source. Where no end group is shown, it is not given here.

T1: mam sCRFR2α (mouse soluble CRF receptor type 2α, amino acids 1-143 with a FLAG epitope following amino acid 143, purified from COS M6 cell media) (mouse)
T1 chain: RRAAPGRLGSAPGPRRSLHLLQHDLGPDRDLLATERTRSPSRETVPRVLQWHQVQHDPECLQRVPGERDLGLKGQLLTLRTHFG


Columns and labels:
Assay in all cases: radioreceptor assay, displacement of [125I-DTyr0]-astressin from purified sCRFR2α
[1] = biological target: bact sCRFR2α (mouse soluble CRF receptor type 2α, amino acids 20-143, purified from E. coli) (mouse)
[2] = biological target: mam sCRFR2α (mouse soluble CRF receptor type 2α, amino acids 1-143 with a FLAG epitope following amino acid 143, purified from COS M6 cell media) (mouse)
[3] = biological target: T1, mam sCRFR2α (mouse soluble CRF receptor …)

Binder	Ki [1]	Ki [2]	Ki [3]
VILSLDVPIGLLRILLEQARYKAARNQAATNAQILAHV (peptide, UniProt Q99ML8 73-110, looked up) [mUcn2 (urocortin 2)]	116 nM	113 nM	–
DDPPLSIDLTFHLLRTLLELARTQSQRERAEQNRIIFDSV (peptide, UniProt P55090 81-120, looked up) [rUcn1 (urocortin 1)]	5.8 nM	6.6 nM	–

More lines, now with the values ahead:

Ki [1]	Ki [2]	Ki [3]	Binder
14.8 nM	23 nM	–	SEEPPISLDLTFHLLREVLEMARAEQLAQQAHSNRKLMEII (ends and bridges not checked) [corticotropin releasing factor (CRF)]
–	–	6.7 nM	FHLLREVLEMARAEQLAQEAHKNRKLMEII (modifications not checked) [Astressin]
